From patent US20170101454A1 (Novo Nordisk, published 2017)
Starred links: 1 amine or outer side, 2 acyl side, 3 side chain; linkers in the order of their positions; H or OH if unused. Non-standard residues stand in square brackets, D forms with d. Groups on a side chain read outwards from the residue. No end group written: not given here. *: point of attachment. C18 diacid = O=C(O)CCCCCCCCCCCCCCCCC(=O)*; γGlu = O=C(O)[C@H](CCC(=O)[*:2])N[*:1]; Ac4c = NC1(C(=O)O)CCC1; AEEA = NCCOCCOCC(=O)O; Aib = CC(C)(N)C(=O)O

How the values were obtained:
human GLP-1 receptor [1] = target: T1, human GLP-1 receptor (human, UniProt P43220 24-463); assay: cell-based or functional assay
human glucagon receptor [2] = target: T2, human glucagon receptor (human, UniProt P47871 26-477); assay: cell-based or functional assay
human GLP-1 receptor [3] = target: T1, human GLP-1 receptor; assay: displacement of [125I]-GLP-1-(7-36)NH2 from BHK membranes with human GLP-1R, SPA, no serum albumin
human glucagon receptor [4] = target: T2, human glucagon receptor; assay: displacement of [125I]-glucagon from BHK membranes with human glucagon receptor, SPA, no serum albumin

T2 sequence (P47871 26-477): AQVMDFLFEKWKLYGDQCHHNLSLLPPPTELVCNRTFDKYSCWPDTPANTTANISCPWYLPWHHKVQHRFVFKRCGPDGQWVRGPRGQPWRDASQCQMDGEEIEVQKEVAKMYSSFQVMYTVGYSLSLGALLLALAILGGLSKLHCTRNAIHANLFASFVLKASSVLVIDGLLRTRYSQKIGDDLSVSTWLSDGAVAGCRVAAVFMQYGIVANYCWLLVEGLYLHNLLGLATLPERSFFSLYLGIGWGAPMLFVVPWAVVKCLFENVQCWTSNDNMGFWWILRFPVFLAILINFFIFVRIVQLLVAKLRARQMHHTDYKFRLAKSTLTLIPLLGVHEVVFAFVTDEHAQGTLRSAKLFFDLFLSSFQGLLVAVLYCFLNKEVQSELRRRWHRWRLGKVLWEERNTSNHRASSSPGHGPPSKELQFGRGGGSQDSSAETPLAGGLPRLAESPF

GLP-1R EC50 (pM) [Assay (I)(a)], CRE luciferase reporter, BHK cells (human GLP-1 receptor [1]) [pM]	GlucagonR EC50 (pM), [Assay (I)(b)], CRE luciferase reporter, BHK cells (human glucagon receptor [2]) [pM]	IC50 (human GLP-1 receptor [3]) [nM]	IC50 (human glucagon receptor [4]) [nM]	Binder
3	12	0.1	3.9	H[Aib]QGTFTSDYSKYLDARRAREFVK([AEEA-AEEA-γGlu-γGlu-γGlu-C18 diacid])WLIST-NH2 (N-terminus assumed; SMILES CC[C@H](C)[C@H](NC(=O)[C@H](CC(C)C)NC(=O)[C@H](Cc1c[nH]c2ccccc12)NC(=O)[C@H](CCCCNC(=O)COCCOCCNC(=O)COCCOCCNC(=O)CC[C@H](NC(=O)CC[C@H](NC(=O)CC[C@H](NC(=O)CCCCCCCCCCCCCCCCC(=O)O)C(=O)O)C(=O)O)C(=O)O)NC(=O)[C@@H](NC(=O)[C@H](Cc1ccccc1)NC(=O)[C@H](CCC(=O)O)NC(=O)[C@H](CCCNC(=N)N)NC(=O)[C@H](C)NC(=O)[C@H](CCCNC(=N)N)NC(=O)[C@H](CCCNC(=N)N)NC(=O)[C@H](C)NC(=O)[C@H](CC(=O)O)NC(=O)[C@H](CC(C)C)NC(=O)[C@H](Cc1ccc(O)cc1)NC(=O)[C@H](CCCCN)NC(=O)[C@H](CO)NC(=O)[C@H](Cc1ccc(O)cc1)NC(=O)[C@H](CC(=O)O)NC(=O)[C@H](CO)NC(=O)[C@@H](NC(=O)[C@H](Cc1ccccc1)NC(=O)[C@@H](NC(=O)CNC(=O)[C@H](CCC(N)=O)NC(=O)C(C)(C)NC(=O)[C@@H](N)Cc1c[nH]cn1)[C@@H](C)O)[C@@H](C)O)C(C)C)C(=O)N[C@@H](CO)C(=O)N[C@H](C(N)=O)[C@@H](C)O, also called Chem. 4; Chem 4)
3	748	0.1	42.4	H[Aib]QGTFTSDVSKYLESRRAQDFVQWLIK([AEEA-AEEA-γGlu-γGlu-γGlu-C18 diacid])T-NH2 (N-terminus assumed; SMILES CC[C@H](C)[C@H](NC(=O)[C@H](CC(C)C)NC(=O)[C@H](Cc1c[nH]c2ccccc12)NC(=O)[C@H](CCC(N)=O)NC(=O)[C@@H](NC(=O)[C@H](Cc1ccccc1)NC(=O)[C@H](CC(=O)O)NC(=O)[C@H](CCC(N)=O)NC(=O)[C@H](C)NC(=O)[C@H](CCCNC(=N)N)NC(=O)[C@H](CCCNC(=N)N)NC(=O)[C@H](CO)NC(=O)[C@H](CCC(=O)O)NC(=O)[C@H](CC(C)C)NC(=O)[C@H](Cc1ccc(O)cc1)NC(=O)[C@H](CCCCN)NC(=O)[C@H](CO)NC(=O)[C@@H](NC(=O)[C@H](CC(=O)O)NC(=O)[C@H](CO)NC(=O)[C@@H](NC(=O)[C@H](Cc1ccccc1)NC(=O)[C@@H](NC(=O)CNC(=O)[C@H](CCC(N)=O)NC(=O)C(C)(C)NC(=O)[C@@H](N)Cc1c[nH]cn1)[C@@H](C)O)[C@@H](C)O)C(C)C)C(C)C)C(=O)N[C@@H](CCCCNC(=O)COCCOCCNC(=O)COCCOCCNC(=O)CC[C@H](NC(=O)CC[C@H](NC(=O)CC[C@H](NC(=O)CCCCCCCCCCCCCCCCC(=O)O)C(=O)O)C(=O)O)C(=O)O)C(=O)N[C@H](C(N)=O)[C@@H](C)O, also called Chem. 10; Chem 10)
7	517	0.1	27.6	H[Aib]QGTFTSDLSKYLESRRAQDFVQWLIK([AEEA-AEEA-γGlu-γGlu-γGlu-C18 diacid])T-NH2 (N-terminus assumed; SMILES CC[C@H](C)[C@H](NC(=O)[C@H](CC(C)C)NC(=O)[C@H](Cc1c[nH]c2ccccc12)NC(=O)[C@H](CCC(N)=O)NC(=O)[C@@H](NC(=O)[C@H](Cc1ccccc1)NC(=O)[C@H](CC(=O)O)NC(=O)[C@H](CCC(N)=O)NC(=O)[C@H](C)NC(=O)[C@H](CCCNC(=N)N)NC(=O)[C@H](CCCNC(=N)N)NC(=O)[C@H](CO)NC(=O)[C@H](CCC(=O)O)NC(=O)[C@H](CC(C)C)NC(=O)[C@H](Cc1ccc(O)cc1)NC(=O)[C@H](CCCCN)NC(=O)[C@H](CO)NC(=O)[C@H](CC(C)C)NC(=O)[C@H](CC(=O)O)NC(=O)[C@H](CO)NC(=O)[C@@H](NC(=O)[C@H](Cc1ccccc1)NC(=O)[C@@H](NC(=O)CNC(=O)[C@H](CCC(N)=O)NC(=O)C(C)(C)NC(=O)[C@@H](N)Cc1c[nH]cn1)[C@@H](C)O)[C@@H](C)O)C(C)C)C(=O)N[C@@H](CCCCNC(=O)COCCOCCNC(=O)COCCOCCNC(=O)CC[C@H](NC(=O)CC[C@H](NC(=O)CC[C@H](NC(=O)CCCCCCCCCCCCCCCCC(=O)O)C(=O)O)C(=O)O)C(=O)O)C(=O)N[C@H](C(N)=O)[C@@H](C)O, also called Chem. 8; Chem 8)
2	32	0.3	6	H[Aib]QGTFTSDLSKYLDARRAQDFVQWLIK([AEEA-AEEA-γGlu-γGlu-γGlu-C18 diacid])T-NH2 (N-terminus assumed; SMILES CC[C@H](C)[C@H](NC(=O)[C@H](CC(C)C)NC(=O)[C@H](Cc1c[nH]c2ccccc12)NC(=O)[C@H](CCC(N)=O)NC(=O)[C@@H](NC(=O)[C@H](Cc1ccccc1)NC(=O)[C@H](CC(=O)O)NC(=O)[C@H](CCC(N)=O)NC(=O)[C@H](C)NC(=O)[C@H](CCCNC(=N)N)NC(=O)[C@H](CCCNC(=N)N)NC(=O)[C@H](C)NC(=O)[C@H](CC(=O)O)NC(=O)[C@H](CC(C)C)NC(=O)[C@H](Cc1ccc(O)cc1)NC(=O)[C@H](CCCCN)NC(=O)[C@H](CO)NC(=O)[C@H](CC(C)C)NC(=O)[C@H](CC(=O)O)NC(=O)[C@H](CO)NC(=O)[C@@H](NC(=O)[C@H](Cc1ccccc1)NC(=O)[C@@H](NC(=O)CNC(=O)[C@H](CCC(N)=O)NC(=O)C(C)(C)NC(=O)[C@@H](N)Cc1c[nH]cn1)[C@@H](C)O)[C@@H](C)O)C(C)C)C(=O)N[C@@H](CCCCNC(=O)COCCOCCNC(=O)COCCOCCNC(=O)CC[C@H](NC(=O)CC[C@H](NC(=O)CC[C@H](NC(=O)CCCCCCCCCCCCCCCCC(=O)O)C(=O)O)C(=O)O)C(=O)O)C(=O)N[C@H](C(N)=O)[C@@H](C)O, also called Chem. 7; Chem 7)
5	14	0.1	3.7	H[Aib]QGTFTSDLSKYLDARRAREFVQWLIK([AEEA-AEEA-γGlu-γGlu-γGlu-C18 diacid])T-NH2 (N-terminus assumed; SMILES CC[C@H](C)[C@H](NC(=O)[C@H](CC(C)C)NC(=O)[C@H](Cc1c[nH]c2ccccc12)NC(=O)[C@H](CCC(N)=O)NC(=O)[C@@H](NC(=O)[C@H](Cc1ccccc1)NC(=O)[C@H](CCC(=O)O)NC(=O)[C@H](CCCNC(=N)N)NC(=O)[C@H](C)NC(=O)[C@H](CCCNC(=N)N)NC(=O)[C@H](CCCNC(=N)N)NC(=O)[C@H](C)NC(=O)[C@H](CC(=O)O)NC(=O)[C@H](CC(C)C)NC(=O)[C@H](Cc1ccc(O)cc1)NC(=O)[C@H](CCCCN)NC(=O)[C@H](CO)NC(=O)[C@H](CC(C)C)NC(=O)[C@H](CC(=O)O)NC(=O)[C@H](CO)NC(=O)[C@@H](NC(=O)[C@H](Cc1ccccc1)NC(=O)[C@@H](NC(=O)CNC(=O)[C@H](CCC(N)=O)NC(=O)C(C)(C)NC(=O)[C@@H](N)Cc1c[nH]cn1)[C@@H](C)O)[C@@H](C)O)C(C)C)C(=O)N[C@@H](CCCCNC(=O)COCCOCCNC(=O)COCCOCCNC(=O)CC[C@H](NC(=O)CC[C@H](NC(=O)CC[C@H](NC(=O)CCCCCCCCCCCCCCCCC(=O)O)C(=O)O)C(=O)O)C(=O)O)C(=O)N[C@H](C(N)=O)[C@@H](C)O, also called Chem. 6; Chem 6)
10	44	0.5	17.3	H[Aib]QGTFTSDLSKYLDLRRAQDFVQWLIK([AEEA-AEEA-γGlu-γGlu-γGlu-C18 diacid])T-NH2 (N-terminus assumed; SMILES CC[C@H](C)[C@H](NC(=O)[C@H](CC(C)C)NC(=O)[C@H](Cc1c[nH]c2ccccc12)NC(=O)[C@H](CCC(N)=O)NC(=O)[C@@H](NC(=O)[C@H](Cc1ccccc1)NC(=O)[C@H](CC(=O)O)NC(=O)[C@H](CCC(N)=O)NC(=O)[C@H](C)NC(=O)[C@H](CCCNC(=N)N)NC(=O)[C@H](CCCNC(=N)N)NC(=O)[C@H](CC(C)C)NC(=O)[C@H](CC(=O)O)NC(=O)[C@H](CC(C)C)NC(=O)[C@H](Cc1ccc(O)cc1)NC(=O)[C@H](CCCCN)NC(=O)[C@H](CO)NC(=O)[C@H](CC(C)C)NC(=O)[C@H](CC(=O)O)NC(=O)[C@H](CO)NC(=O)[C@@H](NC(=O)[C@H](Cc1ccccc1)NC(=O)[C@@H](NC(=O)CNC(=O)[C@H](CCC(N)=O)NC(=O)C(C)(C)NC(=O)[C@@H](N)Cc1c[nH]cn1)[C@@H](C)O)[C@@H](C)O)C(C)C)C(=O)N[C@@H](CCCCNC(=O)COCCOCCNC(=O)COCCOCCNC(=O)CC[C@H](NC(=O)CC[C@H](NC(=O)CC[C@H](NC(=O)CCCCCCCCCCCCCCCCC(=O)O)C(=O)O)C(=O)O)C(=O)O)C(=O)N[C@H](C(N)=O)[C@@H](C)O, also called Chem. 9; Chem 9)
4	32	0.1	11.1	H[Ac4c]QGTFTSDLSKYLESRRAREFVQWLIK([AEEA-AEEA-γGlu-γGlu-C18 diacid])T-NH2 (also called Chem. 18; Chem 18)
